Test results from patent publication US10350264B2, “Compositions and methods for modulating NCOA4-mediated autophagic targeting of ferritin” (Dana-Farber Cancer Institute, Inc., priority 2014, dated 2019).
“Also recorded” adds a separate entry of the source.

T1: NCOA4(aa 383-522)-GST (Homo sapiens, UniProt Q13772)
T1 construct: NCOA4(aa 383-522)-GST or GST alone was incubated with; made in house; host or cells: E. coli BL21 (DE3)
T1 sequence (Q13772 383-522): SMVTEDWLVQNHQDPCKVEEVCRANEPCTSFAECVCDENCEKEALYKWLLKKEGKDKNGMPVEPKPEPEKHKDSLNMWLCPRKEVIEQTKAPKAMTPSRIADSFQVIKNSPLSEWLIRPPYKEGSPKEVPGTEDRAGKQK

T2: HERC2-FLAG fragment (F3, HERC2 amino acids 1700-2700) (Homo sapiens, UniProt O95714)
T2 construct: HERC2-FLAG fragment (F3, HERC2 amino acids 1700-2700) was produced as described in Bekker-Jensen et al; expressed in transfected cells; host or cells: 293T cells (transient transfection, lysate used)
T2 sequence (O95714 1700-2700): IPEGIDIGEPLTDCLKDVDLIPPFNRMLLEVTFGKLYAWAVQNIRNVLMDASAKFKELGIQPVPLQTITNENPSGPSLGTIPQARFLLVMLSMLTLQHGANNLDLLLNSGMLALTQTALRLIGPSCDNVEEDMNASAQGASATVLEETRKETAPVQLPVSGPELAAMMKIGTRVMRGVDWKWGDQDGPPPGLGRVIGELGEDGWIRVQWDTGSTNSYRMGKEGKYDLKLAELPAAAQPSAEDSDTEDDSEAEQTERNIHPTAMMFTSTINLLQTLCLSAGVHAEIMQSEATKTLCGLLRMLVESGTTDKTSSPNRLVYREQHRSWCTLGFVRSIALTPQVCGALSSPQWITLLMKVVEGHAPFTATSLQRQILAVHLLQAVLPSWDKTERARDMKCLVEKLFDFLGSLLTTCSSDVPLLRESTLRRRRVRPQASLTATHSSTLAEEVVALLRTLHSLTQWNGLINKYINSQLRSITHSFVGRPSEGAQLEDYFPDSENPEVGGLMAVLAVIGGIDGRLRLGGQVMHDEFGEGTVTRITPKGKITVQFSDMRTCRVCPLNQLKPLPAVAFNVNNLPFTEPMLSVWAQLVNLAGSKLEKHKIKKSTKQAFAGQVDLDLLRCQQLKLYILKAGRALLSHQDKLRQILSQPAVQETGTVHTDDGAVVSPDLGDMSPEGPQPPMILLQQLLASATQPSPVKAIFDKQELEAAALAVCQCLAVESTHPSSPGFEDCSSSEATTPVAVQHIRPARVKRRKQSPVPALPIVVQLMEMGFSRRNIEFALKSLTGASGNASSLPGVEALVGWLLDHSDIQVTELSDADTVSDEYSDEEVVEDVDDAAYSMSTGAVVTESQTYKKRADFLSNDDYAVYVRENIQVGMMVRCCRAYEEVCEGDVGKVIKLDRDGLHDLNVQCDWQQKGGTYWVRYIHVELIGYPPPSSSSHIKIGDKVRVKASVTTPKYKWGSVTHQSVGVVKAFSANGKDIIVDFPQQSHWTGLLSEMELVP


Legend:
8988T and U2OS cells = test: chelation assay, ferritin degradation by FTH1 immunoblot; assay type: cell-based, human; settings: FAC loading then chelators (DFO, BPS, DFP); FIG. 3(a)-(b), FIG. 19
Description: Chelation assays were performed similarly to those previously described with slight modifications [Asano et al., supra]. Briefly, U2OS and 8988T cells stably expressing shRNAs as described above (shGFP, shNCOA4-1, shNCOA4-2, selected with puromycin) were plated (2×10^5 cells/well) and cultured for 24 hours in FAC (36 μM or 180 μM). Cells were washed three times with PBS and subjected to iron chelation with the described chelators minus or plus lysosomal protease inhibitors (E-64d and PepstatinA) or the proteasomal inhibitor, Bortezomib. Cells were harvested at the indicated time points, washed with PBS, and lysed in 50 mM Tris-HCl (pH 7.4), 150 mM NaCl, 1% Nonidet P40, 0.1% SDS, 2 mM EDTA, 2 mM DTT, protease inhibitors and analyzed by 4-20% gradient SDS-PAGE followed by immunoblotting with the indicated antibodies. Experiments were performed at a minimum in biological triplicate. Quantitation of Western blots was performed using ImageJ [Schneider, C. A., et al. Nature Methods 9, 671-675 (2012)]. Cells were treated similarly for immunofluorescence experiments (including IMR90 and HPDE cells). Cells plated on glass coverslips were treated as described and fixed with 4% paraformaldehyde prior to immunofluorescence using anti-ferritin and anti-LAMP2. Data were collected as described above.

8988T cells = test: NCOA4 protein levels while blocking autophagic flux (immunoblot); assay type: cell-based, human; settings: CQ or BAF 8 hours, FIG. 2(c)
PANC1 cells = test: autophagosome formation, fluorescence microscopy of cells expressing GFP-MAP1LC3B; assay type: cell-based, human; settings: Wortmannin 200 nM 1 h, chloroquine 25 μM 4 h, FIG. 13(b)
NCOA4(aa 383-522)-GST = target: T1, NCOA4(aa 383-522)-GST; test: GST pull-down assay of WT and point mutant FTH1 using NCOA4(aa 383-522)-GST; assay type: binding; settings: 40 μg FTH1, InstantBlue stain; FIGS. 23A-D
Description: Beads were washed thoroughly with 150 mM NaCl, 20 mM Tris (pH 7.4), 2 mM dithiothreitol (DTT), 0.5% (w/v) Nonidet P-40, leaving 50-100 μg of GST-fusion protein bound to the beads. Beads were then mixed with 40 μg of recombinant human WT or point mutant FTH1 produced in Rosetta E. coli (EMD Millipore, 70953-3). The assay mix was incubated for 30 minutes at 4° C., and beads were washed three times with 1 ml wash buffer. Proteins were eluted with SDS sample buffer and analyzed by 4-20% gradient SDS-PAGE. InstantBlue Stain (Expedeon: catalog #ISB1L) was used to visualize GST-NCOA4 bands and FTH1 bands.

FTH1 = test: IVT-based interaction experiment with His-GST-HA tagged NCOA4 constructs and GST pull-down; assay type: binding; settings: equal load of fragments; FIG. 9
[1] = target: T3, apo-ferritin purified from equine spleen (Equus caballus, UniProt Q8MIP0); test: GST pull-down assay of ferritin using GST-NCOA4 fragments; assay type: binding; settings: anti-FTH1 immunoblot
T3 construct: apo-ferritin purified from equine spleen; purchased Sigma F4503; host or cells: equine spleen
From the text: GST-tagged NCOA4 constructs were also made to probe the interactions of C-terminal portions of NCOA4 with ferritin. NCOA4-truncation constructs were produced using Gateway cloning (Invitrogen, Life Technologies, catalog #11789-013 and 11791-019) into a pDEST60 N-terminal GST fusion plasmid (GST-NCOA4) from EMD Millipore (Gateway Nova pET-60-DEST, product #71851-3) and transformed in E. coli BL21 (DE3) cells (New England Biosciences, C2527I).
NCOA4 truncation constructs were designed based on NCBI reference sequence: NP_001138735.1 (SEQ ID NO: 4). In particular, fragments of SEQ ID NO: 4 consisting of amino acids (aa) 1-245, aa 235-614, aa 235-560, aa 235-401, aa 383-560, aa 545-614, aa 383-522, aa 510-560, aa 383-436, aa 436-485, aa 475-522, aa 475-500, aa 480-500, aa 480-504, aa 485-509, aa 490-514, aa 495-522 were designed. Protein expression in the DE3 cells was induced with 1 mM isopropyl-beta-D-thiogalactopyranoside (IPTG) (Sigma, I6758-10 G) for 3 hours at 37° C. Cells were collected by centrifugation, re-suspended in 25 mM Tris-HCl (pH 7.4), 10% (w/v) sucrose and lysed with a single freeze-thaw cycle followed by sonication. After centrifugation, a GST pull-down assay was performed.
In the GST pull-down assay, lysates were incubated with 10 μl of a 50% (v/v) slurry of glutathione Sepharose 4B beads (GE Healthcare Lifesciences, 17-0756-01) for 30 minutes at 4° C. Beads were washed thoroughly with 150 mM NaCl, 20 mM Tris (pH 7.4), 2 mM dithiothreitol (DTT), 0.5% (w/v) Nonidet P-40, leaving 50-100 μg of GST-fusion protein bound to the beads. Beads were then mixed with 0.5-2 μg of apo-ferritin purified from equine spleen (Sigma F4503) or recombinant human FTH1 or FTL produced in Rosetta E. coli (EMD Millipore, 70953-3). The assay mix was incubated for 2 hours at 4° C., and beads were washed four times with 1 ml wash buffer. Proteins were eluted with SDS sample buffer and analyzed by 4-20% gradient SDS-PAGE and immunoblotting with anti-FTH1 antibody (as above) or anti-FLAG antibody (Sigma, F1804-200 UG). Pounceau stain was used to visualize GST-NCOA4 bands. (Pounceau, Sigma, P7170-1 L, protocol as per product manual).

[2] = target: T2, HERC2-FLAG fragment (F3, HERC2 amino acids 1700-2700); test: GST pull-down assay of HERC2-FLAG Fragment 3 using GST-NCOA4 fragments; assay type: binding; settings: 293T lysate expressing HERC2-FLAG F3, anti-FLAG immunoblot; FIG. 12
Description: To map the interaction of NCOA-4 with HERC2, the GST-NCOA4 truncation constructs described above were also tested in a GST pull-down assay with HERC2-FLAG expressing 293T cell line. HERC2-FLAG fragment (F3, HERC2 amino acids 1700-2700) was produced as described in Bekker-Jensen et al., Nature Cell Biology (2010) 12; 80-86. The HERC2-FLAG F3 was transiently transfected into 293T cells using standard transfection procedures using PEI (Polysciences, #23966-2).
Lysates were obtained, as above, and incubated with 10 μl of a 50% (v/v) slurry of glutathione Sepharose 4B beads for 30 minutes at 4° C. Beads were washed thoroughly with 150 mM NaCl, 20 mM Tris (pH 7.4), 2 mM DTT, 0.5% (w/v) Nonidet P-40, leaving 50-100 μg of GST-fusion protein bound to the beads. Beads were then mixed with 300 μg of lysate from a HERC2-FLAG expressing 293T cell line, as above. The assay mix was incubated for 2 hours at 4° C., and beads were washed four times with 1 ml wash buffer. Proteins were eluted with SDS sample buffer and analyzed by 4-20% gradient SDS-PAGE and immunoblotting with anti-HERC2 antibody or anti-FLAG antibody, as above. Coomassie stain was used to visualize GST-NCOA4 bands as above.

T3 sequence (Q8MIP0 whole entry, the tested form may be a part): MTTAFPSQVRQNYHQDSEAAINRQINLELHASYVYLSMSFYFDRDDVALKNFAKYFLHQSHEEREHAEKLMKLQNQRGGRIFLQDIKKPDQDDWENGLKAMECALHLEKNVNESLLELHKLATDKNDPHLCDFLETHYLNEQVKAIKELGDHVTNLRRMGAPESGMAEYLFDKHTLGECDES
T3 sequence (P02791 2-175 partner limits assumed): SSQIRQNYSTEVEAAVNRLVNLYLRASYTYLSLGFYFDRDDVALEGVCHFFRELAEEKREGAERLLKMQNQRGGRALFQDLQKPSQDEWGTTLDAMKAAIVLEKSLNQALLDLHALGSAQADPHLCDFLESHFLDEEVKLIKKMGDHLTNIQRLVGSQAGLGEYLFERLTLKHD

Row | Molecule | ferritin degradation in response to iron chelation (8988T and U2OS cells) | pull-down of FTH1 by IVT GST-NCOA4 fragment (FTH1) | binding of GST-NCOA4 fragment to ferritin ([1]; FIGS. 7, 8, 11) | other results
1 | 5′ CCCAGGAAGTATTACTTAATT 3′ (expressed or natural sequence) [shNCOA4-1] | rescued ferritin degradation | – | – | –
2 | 5′ GCTGGCAAACAGAAGTTTAAA 3′ (expressed or natural sequence) [shNCOA4-2] | rescued ferritin degradation | – | – | –
3 | CCN(CC)CCCC(C)Nc1ccnc2cc(Cl)ccc12 (centres unmarked) [chloroquine, Chloroquine] | – | – | – | NCOA4 protein levels (8988T cells): markedly increased; effect on autophagosomes (PANC1 cells): caused accumulation of autophagosomes
4 | FTH1 R23A point mutant: recombinant human ferritin heavy chain with R23A point mutation, produced in E. coli | – | – | – | binding of FTH1 (WT or point mutant) to NCOA4(383-522)-GST (NCOA4(aa 383-522)-GST): bound only very weakly
5 | KAMTPSRIADSFQVIKNSPLSEWLIRPPYKEGSPKEVPGTEDRAGKQK (Homo sapien) [aa 475-522] | – | equally pulled down (bound to) FTH1 | interacted with ferritin; also recorded: bound to ferritin | binding of GST-NCOA4 fragment to ferritin ([1]; FIGS. 7, 8, 11, listed as amino acids 475-522): bind to ferritin
6 | aa 383-522: fragment of NCOA4 SEQ ID NO: 4 (protein, GST tag; Homo sapien) SMVTEDWLVQNHQDPCKVEEVCRANEPCTSFAECVCDENCEKEALYKWLLKKEGKDKNGMPVEPKPEPEKHKDSLNMWLCPRKEVIEQTKAPKAMTPSRIADSFQVIKNSPLSEWLIRPPYKEGSPKEVPGTEDRAGKQK | – | equally pulled down (bound to) FTH1 | bind to ferritin | binding of GST-NCOA4 fragment to HERC2-FLAG [2]: bound to HERC2-FLAG
